The source of these data is patent US20240327502A1 (Merck Sharp & Dohme, published 2024).

Assay [1] deals with T1, Processed stabilized hMPV PreF trimer (115BV) (human metapneumovirus, strain B2).
T1 construct: also called Processed hMPV PreF trimer; processed PreF
Nature of the assay: BLI, ratio to unprocessed PreF trimer.

For assay [2], the target named is T1, Processed stabilized hMPV PreF trimer …. Nature of the assay: BLI, mAb on anti-human Fc sensor.
The target of assay [3] is T2, hMPV PostF trimer (human metapneumovirus, strain B2).
T2 construct: also called MPV PostF (dPFv1)
Put plainly: BLI, mAb on anti-human Fc sensor. In general terms: In BLI a coated tip is dipped into the sample, and binding shifts an interference pattern.

In assay [4] the target is T3, Unprocessed hMPV PreF trimer (human metapneumovirus, strain B2).
T3 construct: also called Unprocessed hMPV WT PreF trimer; unprocessed hMPV PreF trimeric antigen
Put plainly: BLI, mAb on anti-human Fc sensor.

B1: M2C08 (antibody, V domains shown)
VH: QVQLVQSGAEVKKPGASVIVSCRASGFTFSLYTMHWVRQAPGQGLEWMGWISADNSNTKYSQKYQDRVTITMDTSATTLFMEISSLRSEDTAVYYCTRGPAYYFDSSGFAFDIWGQGTLVTVSS
VL: EIVLTQSPGTLSLSPGERATLSCRASQSVSRTYLGWYQQRPGLAPRLLIYGTSSRATGIPDRFSGSGSGTDFTLTISRLEPEDFATYYCQHFGSSLTFGGGTKVEIK
notes: IgG
As for B1, the “processed/unprocessed PreF trimer binding ratio” value in assay [1] worked out at 0.38. The Octet binding response was 0.157 nm in assay [2], -0.0185 nm in assay [3] and 0.415 nm in assay [4].

B2: M2B11 (antibody, V domains shown)
VH: QVQLVQSGTEVKKPGASVKVSCKASGYTFTSHDINWLRQATGQGLEWLGWMNPNSATTGYAQKFQGRVTLTRDISISTAYMELSSLRSDDTAVYYCARNRHYYYADGPTRDAFDIWGQGTVVTVSS
VL: SYELTQTPTVSVSPGQTASITCSGDELGHKYTSWYQQKPGQSPVLVVYQDTKRPSGIPERFSGSNSGNTATLTISGTQVMDEADYYCQAWDSGTVLLGGGTKLTVL
notes: IgG
On to B2, for which, in assay [1], the “processed/unprocessed PreF trimer binding ratio” value worked out at 1.31. The Octet binding response was 0.498 nm in assay [2], -0.0289 nm in assay [3] and 0.38 nm in assay [4].

B3: M2D08 (antibody, V domains shown)
VH: QVQLVESGGGVVQPGRSLRLSCAASGFVFRFSGMHWIRQAPGKGLQWVAHISDDGSQKYYADSVTGRFAISRDNSRNTLFLEMTGLRGDDTAVYYCARGDYGVSYFLAHWGLGELVIVSS
VL: EIVLTQSPATLSLSPGERATLSCRASQNIYNYLAWYQQKPGQAPRLVIYDASNRATGIPARFSGSGSETDFTLTISSLEPEDFAVYYCQQRSDWTFGQGTKLEIK
notes: IgG
B3: in assay [1], the “processed/unprocessed PreF trimer binding ratio” value was 0.44. Also, the results for the Octet binding response in assay [2], in assay [3] and in assay [4] were 0.182 nm, -0.0414 nm and 0.416 nm, respectively.

B4: M2C11 (antibody, V domains shown)
VH: QVQLVQSGAEVRKPGASVKVSCKASGYTFTSHDINWVRQAPGQGLEWMGWMNPNSDTTGYAQKFQGRVTMARDISMSTAYMELSSLTSEDTAVYYCARGRHNYYTNGPTRDGFDIWGQGTMVTVSS
VL: SYELTQPPSVSVSPGQTATITCSGDDLGNQYANWFQQRPGQSPVLVIYQDNKRPSGIPERFSGSSSGNTATLTISGTQPLDEADYYCQAWDSRTYVFGTGTKVTVL
notes: IgG
For the molecule B4, the “processed/unprocessed PreF trimer binding ratio” value in assay [1] came to 1.04. For the same molecule, the Octet binding response was 0.362 nm in assay [2], -0.03 nm in assay [3] and 0.349 nm in assay [4].

B5: M3E06 (antibody, V domains shown)
VH: EVQLVESGGGLVQPGGSLRLSCAASGFTFSSYWMSWVRQAPGKGLEWVANIKQDGSEKYYVDSVKGRFTISRDNAKNSLYLQMNSLRAEDTAVYYCARYYYDSSGYYYYYYYYMDVWGKGTTVTVSS
VL: not shown
notes: IgG
Regarding B5, the “processed/unprocessed PreF trimer binding ratio” value in assay [1] came out at 0.18. The Octet binding response in assay [2] was determined as 0.0101 nm; in assay [3], 0.329 nm.

B6: M3C06 (antibody, V domains shown)
VH: QVQLVQSGAEVKKPGSSVKVSCKAYGGTLSNYAISWVRQAPGQGLHWMGRIIPVMNVANYADNFQGRVTITADKSTSTAYMELSSLRSEDAAIYYCATARGLGSLEGGDAFDVWGQGTMLTVSS
VL: DIVMTQSPDSVAVSLGERATISCKSSLSLLYSSNNKNYLVWYQQKPGQPPKLLFYWASTRESGVPDRFSASGSGTDFTLTISSLQAEDVAVYYCQQYYSTPITFGQGTRLEIR
notes: IgG
Take B6: the “processed/unprocessed PreF trimer binding ratio” value in assay [1] was found to be 0.93. The values for the Octet binding response in assay [2], in assay [3] and in assay [4] were 0.195 nm, -0.0338 nm and 0.208 nm, respectively.

B7: M3A05 (antibody, V domains shown)
VH: QITLKESGPTLVKPTQTLTLTCTFSGFSLNTGGVSVGWIRQPPGKALEWLALIYWDGDKRYSPSLKSRLTITKDTSKNQVVFTMTNMDPVDTATYYCAHRENSAYIDFWGQGTLVTVSS
VL: QSVLTQPPSVSAAPGQKVTISCSGSSSNIGNNYVSWYQQLPGAAPKLLIYDNNKRPSGIPDRFSGSKSGTSASLGITGLQTGDEADYYCGTWDSSLSVGFYVFGTGTKVTVL
notes: IgG
As for B7, the “processed/unprocessed PreF trimer binding ratio” value in assay [1] came to 0.09. For the same molecule, the Octet binding response in assay [2] stood at 0.0071 nm; in assay [3] it was 0.229 nm.

B8: M2B05 (antibody, V domains shown)
VH: QVQLQQWGAGLLRPSETLSLTCTVYGGSFGGYHWSWIRQSPGKGLEWIGEIDHGGNTNFNPSLKSRVTISVDRSKKQFSLKLTSVTAADTAVYYCARGFGVVINNWFDPWGQGTLVTVSS
VL: DIQMTQSPSSLSASVGDRVTITCRASQTINSYLNWYQQKPGKAPTLLIYTVSSLQSGVPSRFSGSGSGTVFSLTISSLQPEDFATYYCQQSYNSPYTFGQGTKLEIK
notes: IgG
As for B8, the Octet binding response in assay [2] stood at 0.542 nm; in assay [3], 0.486 nm; in assay [4], 0.447 nm.

B9: M2C05 (antibody, V domains shown)
VH: EVQLLESGGGLVQPGGSLRLSCAGSGFTFSNYAMSWVRQAPGKGLEWVSDINDRGETTHYADSVKGRFTISRDNSKKKLFLQMNDLRAEDTAIYYCTRAYVVLSVYAPKGFDYWGQGTLVSVSS
VL: DIQMTQSPSILSASEGDRVTITCRASQSVSNWLAWYQQKSGRAPKLLIYKASSLETGVPSRFSGSGSGTEFTLTINNLQPDDFATYYCQHYNGYPYTFGQGTKLEIK
notes: IgG
In the case of B9, the “processed/unprocessed PreF trimer binding ratio” value in assay [1] was 1.16. The Octet binding response in assay [2] was determined as 0.464 nm; in assay [4] it was 0.399 nm.

B10: M3D08 (antibody, V domains shown)
VH: QVQLQESGPGLVKPSETLSLTCSVSGVSISSHYWSWIRQPAGKGLEWIGRLYTSGTTTYNPSLNSRVTMSVDTTNNRLSLRLTSVTAADTAVYYCARDVRLTVFGALHNWFDPWGQGILVTVSS
VL: DIQMTQSPSSLSASVGDRVTITCRASQSIGTHLNWYQQQRGRAPKLLVYAASGLQSGVPSRFSGSGSGTYFTLTISSLQPEDFATYYCQQSYSTPSITFGQGSRLDIK
notes: IgG
Turning to B10, the “processed/unprocessed PreF trimer binding ratio” value in assay [1] is 0.17. The Octet binding response in assay [2] is 0.0113 nm; in assay [3] it was 0.307 nm.

B11: M3C01 (antibody, V domains shown)
VH: QLQLQESGPGLVKPSETLSLTCTVSGGSISSSSYFWGWIRQPPGKGLEWIGSVFYSGSTYYNPSLKSRVTISVDTPKNQFSLRLSSVTAADTAVYYCARHSWDRWVYWGQGTLVTVSS
VL: DIQMTQSPSSVSASVGDRVTITCRASQDISSWLAWYQQKPGKAPKLLIYAASSLQSGVPSRFSGSGSGTDFTLTISSLQPEDFATYYCQQANSFPLTFGGGTKVEIK
notes: IgG
With B11, the Octet binding response in assay [3] is 0.327 nm; in assay [4], 0.0597 nm.

B12: M4B03 (antibody, V domains shown)
VH: QVQLVQSGAEVKKPGASVKVSCKASGYIFSNYRMHWVRQAPGQRLEWMGWITAGSGNTRYSEQFQGRVAFTSDTDATTVSMELSGLRFEDTAVYFCAREYNWNDAFPYWGQGTLVIVSS
VL: SYVLTQPPSVSVAPGQTARIPCGGNNIGSKSVHWYQQKSGRAPVLVVYDDSDRPPGIPDRFSGSNSGNTATLTINKIEAGDEADYYCHVSDDNSDHVFFGGGTQLTVL
notes: IgG
In the case of B12, the “processed/unprocessed PreF trimer binding ratio” value in assay [1] was determined as 0.33. Also, the results for the Octet binding response in assay [2], in assay [3] and in assay [4] were 0.108 nm, -0.061 nm and 0.324 nm, respectively.

B13: M4A10 (antibody, V domains shown)
VH: QVQLVQSGAEVKKPGASVKVSCKASGYTFNGHYLHWVRQAPGQGLEWMGWINPNSGGTDYAQRFQGRVTMTRGTSISTAYMELSRLTSDDTAVYFCARDNFGFWSASSGRHNWLDSWGQGTLVIVSS
VL: NFMLTQPHSVSESPGKTVTISCTRSTGNIASNYVQWYQQRPGSSPTTVIYEDNQRPSAVPDRFSGSIDSSSNSASLTVSGLRTEDEADYYCQSYDSGHHVVFGGGTKLTVL
notes: IgG
In the case of B13, the “processed/unprocessed PreF trimer binding ratio” value in assay [1] stood at 0.71. Moreover, the values for the Octet binding response in assay [2], in assay [3] and in assay [4] were 0.23 nm, -0.0388 nm and 0.325 nm, respectively.

B14: M3A11 (antibody, V domains shown)
VH: EVQLVESGGGLVQPGGSLRLSCAASGFTFSDYSMNWVRQAPGQGLEWISYISSTGSTIYYADSVRGRFTISRDNAKNSLYLQMNTLRAEDTAVYYCARGKTTVTIWFDPWGQGTLVTVSS
VL: SYVLTQPPSVSVAPGQTARITCGGNNIGSKSVHWYQQKPGQAPVLVVYDDSDRPSGIPERFSGSNSGNTATLTISRVEAGDEADYYCQVWHSSSDWVFGGGTRLTVL
notes: IgG
As to B14, the Octet binding response in assay [3] was determined as 0.414 nm.

B15: M3E05 (antibody, V domains shown)
VH: EVQLVESGGSVIQPGGSLRLSCAASGFSVRTNYMNWVRQAPGKGLEWVSVIYSDGRTYYSDSVKGRFTISRDNSMNNVFLQMNSLRAEDTAVYYCARDPTFYSSSWWYLDHWGQGTQVTVSS
VL: SYELTQALSVSVARGQTAKITCGGNNIGVRNVHWYQQKPGQAPVLVIYRDNIRPSGIPERFSGSNSGNMAALTISSAQEGDEADYYCQVWDSNTAHVIFGGGTKLTVL
notes: IgG
Take B15: the Octet binding response in assay [3] was 0.509 nm; in assay [4], 0.126 nm.

B16: M2C01 (antibody, V domains shown)
VH: EVQLVESGGDLAKPGGSLRLSCEASGFTFSNAWMSWVRQAPGKGLEWVGQIKPHTDGATTDYAAPVKGRFTISRDDSKSTLYLRMNILRIEDTAMYYCTTGPRLSLMWGQGTRVTVSS
VL: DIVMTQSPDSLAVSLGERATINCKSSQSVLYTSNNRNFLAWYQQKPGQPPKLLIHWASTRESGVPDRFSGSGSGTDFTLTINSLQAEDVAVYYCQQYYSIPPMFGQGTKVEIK
notes: IgG
As to B16, the Octet binding response was -0.0726 nm in assay [3] and 0.107 nm in assay [4].

B17: M1C7 (antibody, V domains shown)
VH: QVQLVESGGGLVQPGRSLRLSCAASGFTFSSYAMHWVRQAPGKGLEWVAIITYDGSGKYYADSLEGRITISRDDPKSMLYLHMRSLTAEDTAVYYCVKSGSFSSAFWLEDWGQGTLVTVSS
VL: EIVLTQSPATLSLSPGERATLSCRASQSISNFVAWYQQKPGQAPRLLIYDASNGATGTPARFSGSGSGTDFTLTISSLEPEDFAVYYCQQRSTWTFGQGTKVEIKR
notes: IgG; also called MIC7
B17: the “processed/unprocessed PreF trimer binding ratio” value in assay [1] was found to be 1.15. Also, the figures for the Octet binding response in assay [2], in assay [3] and in assay [4] were 0.359 nm, 0.0541 nm and 0.312 nm, respectively.
